# Measured values: US8795990B2, “Recombinant enzyme with altered feedback sensitivity” (Metabolic Explorer, priority 2004, dated 2014)
# B1: MetK* S273F (protein, UniProt P0A817 2-384, looked up, variant S273F)
# S-adenosylmethionine synthase: AKHLFTSESVSEGHPDKIADQISDAVLDAILEQDPKARVACETYVKTGMVLVGGEITTSAWVDIEEITRNTVREIGYVHSDMGFDANSCAVLSAIGKQSPDINQGVDRADPLEQGAGDQGLMFGYATNETDVLMPAPITYAHRLVQRQAEVRKNGTLPWLRPDAKSQVTFQYDDGKIVGIDAVVLSTQHSEEIDQKSLQEAVMEEIIKPILPAEWLTSATKFFINPTGRFVIGGPMGDCGLTGRKIIVDTYGGMARHGGGAFSGKDPSKVDRFAAYAARYVAKNIVAAGLADRCEIQVSYAIGVAEPTSIMVETFGTEKVPSEQLTLLVREFFDLRPYGLIQMLDLLHPIYKETAAYGHFGREHFPWEKTDKAQLLRDAAGLK
# Tested on: S-adenosylmethionine synthetase
# Experiment: S-adenosylmethionine synthetase (MAT) activity in vitro in crude extracts, FIA-MS/MS
# Format: biochemical, E. coli
# Conditions: 10 mM methionine, 10 mM ATP, 37° C., 30 minutes
molecule,measurement,value
B1,MAT (S-adenosylmethionine synthetase activity),2.2 mUI/mg prot
